In paper PMC3557803:

What was measured:
Assay in all cases: UV-visible absorbance assay of deamination
Type in all cases: biochemical, Martinezella rhizogenes
Settings in all cases: 20 mM HEPES pH 7.7
[1] = substrate: Nc1nc2nccnc2c(=O)[nH]1
[2] = substrate: Nc1nc2ncc(CO)nc2c(=O)[nH]1
[3] = substrate: Nc1nc2ncc(CNc3ccc(C(=O)N[C@@H](CCC(=O)O)C(=O)O)cc3)nc2c(=O)[nH]1
[4] = substrate: Nc1nc2c(c(=O)[nH]1)N=C([C@H](O)[C@H](O)CO)CN2
[5] = substrate: C[C@H](O)[C@H](O)c1cnc2[nH]c(N)nc(=O)c2n1
[6] = substrate: Nc1nc2[nH]c(=O)cnc2c(=O)[nH]1
[7] = substrate: Nc1nc2c(c(=O)[nH]1)N=C(CO)CN2
[8] = substrate: Nc1nc2ncc(C(=O)O)nc2c(=O)[nH]1
[9] = substrate: C[C@H](O)C(=O)C1=Nc2c(nc(N)[nH]c2=O)NC1
[10] = substrate: Nc1nc2ncc([C@H](O)[C@H](O)CO)nc2c(=O)[nH]1
[11] = substrate: Nc1nc2nc(C(=O)O)cnc2c(=O)[nH]1
[12] = substrate: Nc1nc2ncc(C=O)nc2c(=O)[nH]1
[13] = substrate: C[C@H](O)[C@H](O)C1=Nc2c(nc(N)[nH]c2=O)NC1

B1: Arad3529 (Rhizobium rhizogenes K84) (protein)
chain: MSYSFMSPPNAARFVLSNATVPAVTVVGFTGPSSEGLMKADIVVADGLIKDILPAGTAPAELAKADMRDGMVWPTFADMHTHLDKGHIWERRANPDGSFMGALDAVRSDREANWSAADVRKRMEFSLRAAYAHGTSLIRTHLDSLAPQHRISFEVFSEVREAWKDKIALQAVALFPLDFMVDDAFFADLTTVVREAGGLLGGVTQMNPDIDAQLDKLIRAAAANGLDIDLHVDETEDREVLTLKAIAAAVLRNGFTGKVTAGHCCSLARQDENVAAATIDLVAKAGISIVALPMCNMYLQDRHPGRTPRWRGVTLLHELAAAGVPTAVASDNTRDPFYAYGDLDPVEVFREAVRILHLDHPLDTAARVVTTSPASILGRPDIGRIAVGGPADLVLFSARRWSEFLSRPQSDRVVLRKGKVIDRSLPDYRELDTVIGA
Which results are given for B1?
Km [1]: 39 ± 4 µM; kcat [1]: 131 ± 4 s⁻¹; kcat/Km [1]: 3.3e+06 M⁻¹ s⁻¹; Km [2]: 23 ± 3 µM; kcat [2]: 28 ± 1 s⁻¹; kcat/Km [2]: 1.2e+06 M⁻¹ s⁻¹; Km [3]: 50 ± 10 µM; kcat [3]: 6.4 ± 0.5 s⁻¹; kcat/Km [3]: 130000 M⁻¹ s⁻¹; Km [4]: 200 ± 100 µM; kcat [4]: 0.036 ± 0.008 s⁻¹; kcat/Km [4]: 260 M⁻¹ s⁻¹; Km [5]: 47 ± 9 µM; kcat [5]: 46 ± 4 s⁻¹; kcat/Km [5]: 1e+06 M⁻¹ s⁻¹; Km [6]: 5.7 ± 0.5 µM; kcat [6]: 1.6 ± 0.1 s⁻¹; kcat/Km [6]: 280000 M⁻¹ s⁻¹; Km [7]: 37 ± 7 µM; kcat [7]: 1.2 ± 0.1 s⁻¹; kcat/Km [7]: 33000 M⁻¹ s⁻¹; Km [8]: 27 ± 2 µM; kcat [8]: 110 ± 3 s⁻¹; kcat/Km [8]: 4e+06 M⁻¹ s⁻¹; Km [9]: 22 ± 9 µM; kcat [9]: 2.9 ± 0.3 s⁻¹; kcat/Km [9]: 130000 M⁻¹ s⁻¹; Km [10]: 61 ± 7 µM; kcat [10]: 19 ± 1 s⁻¹; kcat/Km [10]: 310000 M⁻¹ s⁻¹; Km [11]: 13 ± 1 µM; kcat [11]: 48 ± 2 s⁻¹; kcat/Km [11]: 3.7e+06 M⁻¹ s⁻¹; Km [12]: 12 ± 2 µM; kcat [12]: 64 ± 12 s⁻¹; kcat/Km [12]: 5.2e+06 M⁻¹ s⁻¹; Km [13]: 93 ± 13 µM; kcat [13]: 0.09 ± 0.007 s⁻¹; kcat/Km [13]: 930 M⁻¹ s⁻¹
